Reference: patent US20140161804A1 (AbbVie / Abbott, published 2014)

Biological target: T1, Human IL-17A (human, UniProt Q16552 20-155, limits assumed)
T1 construct: Biotinylated in the ELISAs; purified recombinant protein in SPR; also called hIL17A; hIL-17
Experiment: ELISA, captured DVD-Ig, biotin-human IL-17 titrated
Method: The following protocol is used to characterize the binding of TNF/IL-17 DVD-Ig proteins to human TNF and IL-17 by enzyme-linked immunosorbent assay (ELISA). An ELISA plate was coated with 50 μl per well of goat anti mouse IgG-Fc at 2 μg/ml, overnight at 4° C. The plate was washed 3 times with PBS/Tween. 50 μl Mab diluted to 1 μg/ml in PBS/0.1% BSA was added to appropriate wells and incubated for 1 hour at room temperature (RT). The plate was washed 3 times with PBS/Tween. 50 μl of serial diluted biotin-human TNF or IL-17 was added to appropriate wells and incubated for 1 hour at RT. The plate was washed 3 times with PBS/Tween. 50 μl of streptavidin-HRP diluted 1:10,000 in PBS/0.1% BSA was added to appropriate wells and incubated for 1 hour at RT. The plate was washed 3 times with PBS/Tween. 50 μl of TMB was added to appropriate wells and the reaction allowed to proceed for 1 minute. The reaction was stopped with 50 μl/well 2N H₂SO₄ and the absorbance read at 450 nm.

T1 sequence (Q16552 20-155 limits assumed): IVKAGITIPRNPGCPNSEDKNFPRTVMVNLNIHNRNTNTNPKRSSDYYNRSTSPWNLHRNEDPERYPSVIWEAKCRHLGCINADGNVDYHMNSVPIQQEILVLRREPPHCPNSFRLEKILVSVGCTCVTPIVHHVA

EC50 [pM]	Binder
300	hMAK195-21-h10F7-A11.8 DVD-Ig (bispecific antibody, human IgG1, kappa, L234A L235A, DVD-Ig; IgG1 234,235 mut, kappa; GS10 linkers; light chain shared with the M11 DVD-Ig; also called hMAK195-21-GS10-A11 DVD) heavy: not shown light: DIQMTQSPSSLSASVGDRVTITCRASQLVSSAVAWYQQKPGKAPKLLIYWASARHTGVPSRFSGSGSGTDFTLTISSLQPEDFATYYCQQHYKTPFTFGQGTKLEIKRGGSGGGGSGDIQMTQSPSSLSASVGDRVTITCRASSGIISYIDWFQQKPGKAPKRLIYATFDLASGVPSRFSGSGSGTDYTLTISSLQPEDFATYYCRQVGSYPETFGQGTKLEIKRTVAAPSVFIFPPSDEQLKSGTASVVCLLNNFYPREAKVQWKVDNALQSGNSQESVTEQDSKDSTYSLSSTLTLSKADYEKHKVYACEVTHQGLSSPVTKSFNRGEC
295	hMAK195-24-h10F7-A11.8 DVD-Ig (bispecific antibody, human IgG1, kappa, L234A L235A, DVD-Ig; IgG1 234,235 mut, kappa; GS10 linkers; also called hMAK195-24-GS10-A11 DVD) heavy: not shown light: DIQMTQSPSSLSASVGDRVTITCKASQLVSSAVAWYQQKPGKAPKLLIYWASTLHTGVPSRFSGSGSGTDFTLTISSLQPEDFATYYCQQHYRTPFTFGQGTKLEIKRGGSGGGGSGDIQMTQSPSSLSASVGDRVTITCRASSGIISYIDWFQQKPGKAPKRLIYATFDLASGVPSRFSGSGSGTDYTLTISSLQPEDFATYYCRQVGSYPETFGQGTKLEIKRTVAAPSVFIFPPSDEQLKSGTASVVCLLNNFYPREAKVQWKVDNALQSGNSQESVTEQDSKDSTYSLSSTLTLSKADYEKHKVYACEVTHQGLSSPVTKSFNRGEC
93	hMAK195-24-h10F7-A16.8 DVD-Ig (bispecific antibody, human IgG1, kappa, L234A L235A, DVD-Ig; IgG1 234,235 mut, kappa; GS10 linkers; light chain shared with the A6 DVD-Ig; also called hMAK195-24-GS10-A16 DVD) heavy: not shown light: DIQMTQSPSSLSASVGDRVTITCKASQLVSSAVAWYQQKPGKAPKLLIYWASTLHTGVPSRFSGSGSGTDFTLTISSLQPEDFATYYCQQHYRTPFTFGQGTKLEIKRGGSGGGGSGDIQMTQSPSSLSASVGDRVTITCSASQGIRSYIDWFQQKPGKSPKRLIYATFDLASGVPSRFSGSGSGTDYTLTISSLQPEDFATYYCRQVGNYPGTFGQGTKLEIKRTVAAPSVFIFPPSDEQLKSGTASVVCLLNNFYPREAKVQWKVDNALQSGNSQESVTEQDSKDSTYSLSSTLTLSKADYEKHKVYACEVTHQGLSSPVTKSFNRGEC
100	hMAK195-21-h10F7-M10.8 DVD-Ig (bispecific antibody, human IgG1, kappa, L234A L235A, DVD-Ig; IgG1 234,235 mut, kappa; GS10 linkers; also called hMAK195-21-GS10-M10 DVD) heavy: not shown light: DIQMTQSPSSLSASVGDRVTITCRASQLVSSAVAWYQQKPGKAPKLLIYWASARHTGVPSRFSGSGSGTDFTLTISSLQPEDFATYYCQQHYKTPFTFGQGTKLEIKRGGSGGGGSGDIQMTQSPSSLSASVGDRVTITCSASSGSISYIDWFQQKPGKAPKRLIYATFELASGVPSRFSGSGSGTDFTLTISSLQPEDFATYYCHQLGSYPDTFGQGTKLEIKRTVAAPSVFIFPPSDEQLKSGTASVVCLLNNFYPREAKVQWKVDNALQSGNSQESVTEQDSKDSTYSLSSTLTLSKADYEKHKVYACEVTHQGLSSPVTKSFNRGEC
230	hMAK195-21-h10F7-A16.8 DVD-Ig (bispecific antibody, human IgG1, kappa, L234A L235A, DVD-Ig; IgG1 234,235 mut, kappa; GS10 linkers; light chain shared with the A6 DVD-Ig; also called ShMAK195-21-h10F7-A16.8 DVD-Ig; hMAK195-21-GS10-A16 DVD) heavy: not shown light: DIQMTQSPSSLSASVGDRVTITCRASQLVSSAVAWYQQKPGKAPKLLIYWASARHTGVPSRFSGSGSGTDFTLTISSLQPEDFATYYCQQHYKTPFTFGQGTKLEIKRGGSGGGGSGDIQMTQSPSSLSASVGDRVTITCSASQGIRSYIDWFQQKPGKSPKRLIYATFDLASGVPSRFSGSGSGTDYTLTISSLQPEDFATYYCRQVGNYPGTFGQGTKLEIKRTVAAPSVFIFPPSDEQLKSGTASVVCLLNNFYPREAKVQWKVDNALQSGNSQESVTEQDSKDSTYSLSSTLTLSKADYEKHKVYACEVTHQGLSSPVTKSFNRGEC
130	hMAK195-21-h10F7-A6.8 DVD-Ig (bispecific antibody, human IgG1, kappa, L234A L235A, DVD-Ig; IgG1 234,235 mut, kappa; GS10 linkers; also called hMAK195-21-GS10-A6 DVD) heavy: not shown light: DIQMTQSPSSLSASVGDRVTITCRASQLVSSAVAWYQQKPGKAPKLLIYWASARHTGVPSRFSGSGSGTDFTLTISSLQPEDFATYYCQQHYKTPFTFGQGTKLEIKRGGSGGGGSGDIQMTQSPSSLSASVGDRVTITCSASQGIRSYIDWFQQKPGKSPKRLIYATFDLASGVPSRFSGSGSGTDYTLTISSLQPEDFATYYCRQVGNYPGTFGQGTKLEIKRTVAAPSVFIFPPSDEQLKSGTASVVCLLNNFYPREAKVQWKVDNALQSGNSQESVTEQDSKDSTYSLSSTLTLSKADYEKHKVYACEVTHQGLSSPVTKSFNRGEC
188	hMAK195-24-h10F7-A6.8 DVD-Ig (bispecific antibody, human IgG1, kappa, L234A L235A, DVD-Ig; IgG1 234,235 mut, kappa; GS10 linkers; also called hMAK195-24-GS10-A6 DVD) heavy: not shown light: DIQMTQSPSSLSASVGDRVTITCKASQLVSSAVAWYQQKPGKAPKLLIYWASTLHTGVPSRFSGSGSGTDFTLTISSLQPEDFATYYCQQHYRTPFTFGQGTKLEIKRGGSGGGGSGDIQMTQSPSSLSASVGDRVTITCSASQGIRSYIDWFQQKPGKSPKRLIYATFDLASGVPSRFSGSGSGTDYTLTISSLQPEDFATYYCRQVGNYPGTFGQGTKLEIKRTVAAPSVFIFPPSDEQLKSGTASVVCLLNNFYPREAKVQWKVDNALQSGNSQESVTEQDSKDSTYSLSSTLTLSKADYEKHKVYACEVTHQGLSSPVTKSFNRGEC
